Reference: patent US20220074941A1, “HSP90 COMBINATION THERAPY” (Sloan-Kettering Institute for Cancer Research, priority 2011, published 2022)

B1: HYOU1 (protein, UniProt Q9Y4L1 33-999, looked up)
Hypoxia up-regulated protein 1: LAVMSVDLGSESMKVAIVKPGVPMEIVLNKESRRKTPVIVTLKENERFFGDSAASMAIKNPKATLRYFQHLLGKQADNPHVALYQARFPEHELTFDPQRQTVHFQISSQLQFSPEEVLGMVLNYSRSLAEDFAEQPIKDAVITVPVFFNQAERRAVLQAARMAGLKVLQLINDNTATALSYGVFRRKDINTTAQNIMFYDMGSGSTVCTIVTYQMVKTKEAGMQPQLQIRGVGFDRTLGGLEMELRLRERLAGLFNEQRKGQRAKDVRENPRAMAKLLREANRLKTVLSANADHMAQIEGLMDDVDFKAKVTRVEFEELCADLFERVPGPVQQALQSAEMSLDEIEQVILVGGATRVPRVQEVLLKAVGKEELGKNINADEAAAMGAVYQAAALSKAFKVKPFVVRDAVVYPILVEFTREVEEEPGIHSLKHNKRVLFSRMGPYPQRKVITFNRYSHDFNFHINYGDLGFLGPEDLRVFGSQNLTTVKLKGVGDSFKKYPDYESKGIKAHFNLDESGVLSLDRVESVFETLVEDSAEEESTLTKLGNTISSLFGGGTTPDAKENGTDTVQEEEESPAEGSKDEPGEQVELKEEAEAPVEDGSQPPPPEPKGDATPEGEKATEKENGDKSEAQKPSEKAEAGPEGVAPAPEGEKKQKPARKRRMVEEIGVELVVLDLPDLPEDKLAQSVQKLQDLTLRDLEKQEREKAANSLEAFIFETQDKLYQPEYQEVSTEEQREEISGKLSAASTWLEDEGVGATTVMLKEKLAELRKLCQGLFFRVEERKKWPERLSALDNLLNHSSMFLKGARLIPEMDQIFTEVEMTTLEKVINETWAWKNATLAEQAKLPATEKPVLLSKDIEAKMMALDREVQYLLNKAKFTKPRPRPKDKNGTRAEPPLNASASDQGEKVIPPAGQTEDAEPISEPEKVETGSEPGDTEPLELGGPGAEPEQKEQSTGQKRPLKNDEL
B2: ZG16B (protein, UniProt Q96DA0 17-172, looked up)
Pancreatic adenocarcinoma …: GKMYGPGGGKYFSTTEDYDHEITGLRVSVGLLLVKSVQVKLGDSWDVKLGALGGNTQEVTLQPGEYITKVFVAFQAFLRGMVMYTSKDRYFYFGKLDGQISSAYPSQEGQVLVGIYGQYQLLGIKSIGFEWNYPLEEPTTEPPVNLTYSANSPVGR
B3: HEATR2 (protein, UniProt Q86Y56 2-855, looked up)
Dynein axonemal assembly …: AALGVAEAVAAPHPAEGAETAEAVELSRALSRLLPGLEADSKPGRRRALEALRRALEEPGPAADPTAFQGPWARLLLPRLLRCLSDPAEGCRALAVHLLDLGLRRAARPRDALPRLLPALAARLAGPVPARRPPEACEELRLALVQLLGLAVDLCGAALAPHLDDALRALRCSLLDPFAAVRRESCSCAAALAQATPDHFHMQSESLIGPLMQTISHQHWKVRVAAIEATGAVIHFGNGKSVDDVLSHFAQRLFDDVPQVRRAVASVVGGWLLCLRDRYSFFHKLIPLLLSSLNDEVPEVRQLAASLWEDVGLQWQKENEEDLKDKLDFAPPTPPHYPPHERRPVLGCRELVFRNLSKILPALCHDITDWVVGTRVKSAQLLPVLLLHAEDHATQHLEVVLRTLFQACTDEEAAVVQSCTRSAELVGTFVSPEVFLKLILSTLKKTPSASGLLVLASAMRGCPREALQPHLAAIATELAQAHICQASENDLYLERLLLCVQALVSVCHEDCGVASLQLLDVLLTIVALAGATGLRDKAQETMDSLAMVEGVSSCQDLYRKHIGPLLERVTASHLDWTAHSPELLQFSVIVAQSGPALGEALPHVVPTLRACLQPSQDPQMRLKLFSILSTVLLRATDTINSQGQFPSYLETVTKDILAPNLQWHAGRTAAAIRTAAVSCLWALTSSEVLSAEQIRDVQETLMPQVLTTLEEDSKMTRLISCRIINTFLKTSGGMTDPEKLIRIYPELLKRLDDVSNDVRMAAASTLVTWLQCVKGANAKSYYQSSVQYLYRELLVHLDDPERAIQDAILEVLKEGSGLFPDLLVRETEAVIHKHRSATYCEQLLQHVQAVPATQ
B4: TRIM56 (protein, UniProt Q9BRZ2 1-755, looked up)
E3 ubiquitin-protein ligase …: MVSHGSSPSLLEALSSDFLACKICLEQLRAPKTLPCLHTYCQDCLAQLADGGRVRCPECRETVPVPPEGVASFKTNFFVNGLLDLVKARACGDLRAGKPACALCPLVGGTSTGGPATARCLDCADDLCQACADGHRCTRQTHTHRVVDLVGYRAGWYDEEARERQAAQCPQHPGEALRFLCQPCSQLLCRECRLDPHLDHPCLPLAEAVRARRPGLEGLLAGVDNNLVELEAARRVEKEALARLREQAARVGTQVEEAAEGVLRALLAQKQEVLGQLRAHVEAAEEAARERLAELEGREQVARAAAAFARRVLSLGREAEILSLEGAIAQRLRQLQGCPWAPGPAPCLLPQLELHPGLLDKNCHLLRLSFEEQQPQKDGGKDGAGTQGGEESQSRREDEPKTERQGGVQPQAGDGAQTPKEEKAQTTREEGAQTLEEDRAQTPHEDGGPQPHRGGRPNKKKKFKGRLKSISREPSPALGPNLDGSGLLPRPIFYCSFPTRMPGDKRSPRITGLCPFGPREILVADEQNRALKRFSLNGDYKGTVPVPEGCSPCSVAALQSAVAFSASARLYLINPNGEVQWRRALSLSQASHAVAALPSGDRVAVSVAGHVEVYNMEGSLATRFIPGGKASRGLRALVFLTTSPQGHFVGSDWQQNSVVICDGLGQVVGEYKGPGLHGCQPGSVSVDKKGYIFLTLREVNKVVILDPKGSLLGDFLTAYHGLEKPRVTTMVDGRYLVVSLSNGTIHIFRVRSPDS
B5: KIAA1468 (protein, UniProt Q9P260 2-1216, looked up)
RAB11-binding protein RELCH: AAMAPGGSGSGGGVNPFLSDSDEDDDEVAATEERRAVLRLGAGSGLDPGSAGSLSPQDPVALGSSARPGLPGEASAAAVALGGTGETPARLSIDAIAAQLLRDQYLLTALELHTELLESGRELPRLRDYFSNPGNFERQSGTPPGMGAPGVPGAAGVGGAGGREPSTASGGGQLNRAGSISTLDSLDFARYSDDGNRETDEKVAVLEFELRKAKETIQALRANLTKAAEHEVPLQERKNYKSSPEIQEPIKPLEKRALNFLVNEFLLKNNYKLTSITFSDENDDQDFELWDDVGLNIPKPPDLLQLYRDFGNHQVTGKDLVDVASGVEEDELEALTPIISNLPPTLETPQPAENSMLVQKLEDKISLLNSEKWSLMEQIRRLKSEMDFLKNEHFAIPAVCDSVQPPLDQLPHKDSEDSGQHPDVNSSDKGKNTDIHLSISDEADSTIPKENSPNSFPRREREGMPPSSLSSKKTVHFDKPNRKLSPAFHQALLSFCRMSADSRLGYEVSRIADSEKSVMLMLGRCLPHIVPNVLLAKREELIPLILCTACLHPEPKERDQLLHILFNLIKRPDDEQRQMILTGCVAFARHVGPTRVEAELLPQCWEQINHKYPERRLLVAESCGALAPYLPKEIRSSLVLSMLQQMLMEDKADLVREAVIKSLGIIMGYIDDPDKYHQGFELLLSALGDPSERVVSATHQVFLPAYAAWTTELGNLQSHLILTLLNKIEKLLREGEHGLDEHKLHMYLSALQSLIPSLFALVLQNAPFSSKAKLHGEVPQIEVTRFPRPMSPLQDVSTIIGSREQLAVLLQLYDYQLEQEGTTGWESLLWVVNQLLPQLIEIVGKINVTSTACVHEFSRFFWRLCRTFGKIFTNTKVKPQFQEILRLSEENIDSSAGNGVLTKATVPIYATGVLTCYIQEEDRKLLVGFLEDVMTLLSLSHAPLDSLKASFVELGANPAYHELLLTVLWYGVVHTSALVRCTAARMFELTLRGMSEALVDKRVAPALVTLSSDPEFSVRIATIPAFGTIMETVIQRELLERVKMQLASFLEDPQYQDQHSLHTEIIKTFGRVGPNAEPRFRDEFVIPHLHKLALVNNLQIVDSKRLDIATHLFEAYSALSCCFISEDLMVNHFLPGLRCLRTDMEHLSPEHEVILSSMIKECEQKVENKTVQEPQGSMSIAASLVSEDTKTKFLNKMGQLTTSGAMLANVFQRKK

test system: Hsp90 complexes in K562 cell extract; assay: Nano-LC-MS/MS of PU-beads pull-downs; type: binding; conditions: protein identified in PU-beads pull-down of K562 cell extract, Prep 1; QSTAR-Elite QTof MS
Protocol: Protein cargo isolated from cell lysate with PU-beads or control-beads was subjected to proteomic analysis by nano liquid chromatography coupled to tandem mass spectrometry (nano LC-MS/MS). Initial protein identification was performed using the Mascot search engine, and was further evaluated using Scaffold Proteome Software (Tables 5a-d).
(§1) Lysates prepared as mentioned above were first pre-cleaned by incubation with control beads overnight at 4° C. […] Beads were washed with lysis buffer, proteins eluted by boiling in 2% SDS, separated on a denaturing gel and Coomassie stained according to manufacturer's procedure (Biorad). […] Analyses of the batch purified pools were done using a QSTAR-Elite hybrid quadrupole time-of-flight mass spectrometer (QTof MS) (AB/MDS Sciex), equipped with a nano spray ion source. Peptide mixtures (in 20 μL) are loaded onto a trapping guard column (0.3×5-mm PepMap C18 100 cartridge from LC Packings) using an Eksigent nano MDLC system (Eksigent Technologies, Inc) at a flow rate of 20 μL/min. […] Electrospray ionization (ESI) needle voltage was set at about 1800 V. The mass analyzer is operated in automatic, data-dependent MS/MS acquisition mode, with the threshold set to 10 counts per second of doubly or triply charged precursor ions selected for fragmentation scans. Survey scans of 0.25 sec are recorded from 400 to 1800 amu; up to 3 MS/MS scans are then collected sequentially for the selected precursor ions, recording from 100 to 1800 amu. The collision energy is automatically adjusted in accordance with the m/z value of the precursor ions selected for MS/MS. Selected precursor ions are excluded from repeated selection for 60 sec after the end of the corresponding fragmentation duty cycle. […] One missed tryptic cleavage site was allowed, precursor ion mass tolerance=0.4 Da fragment ion mass tolerance=0.4 Da, protein modifications were allowed for Met-oxide, Cys-acrylamide and N-terminal acetylation. MudPit scoring was typically applied with ‘require bold red’ activated, and using significance threshold score p<0.05. Unique peptide counts (or ‘spectral counts’) and percent sequence coverages for all identified proteins were exported to Scaffold Proteome Software (version 2_06_01, www.proteomesoftware.com) for further bioinformatic analysis (Table 5a). Using output from Mascot, Scaffold validates, organizes, and interprets mass spectrometry data, allowing more easily to manage large amounts of data, to compare samples, and to search for protein modifications.

| Molecule | Number of Assigned Spectra, K562 Prep 1 |
| --- | --- |
| B1 | 0 |
| B2 | 0 |
| B3 | 5 |
| B4 | 0 |
| B5 | 0 |

same assay, conditions: protein identified in PU-beads pull-down of K562 cell extract, Prep 2; QSTAR-Elite QTof MS

| Molecule | Number of Assigned Spectra, K562 Prep 2 |
| --- | --- |
| B1 | 3 |
| B2 | 3 |
| B3 | 2 |
| B4 | 0 |
| B5 | 0 |

test system: Hsp90 complexes in Mia-PaCa-2 cell extract; assay: Nano-LC-MS/MS of PU-beads pull-downs; type: binding, human; conditions: protein identified in PU-beads pull-down of Mia-PaCa-2 cell extract; QSTAR-Elite QTof MS
Protocol: as §1

| Molecule | Number of Assigned Spectra, Mia-Paca 2 |
| --- | --- |
| B1 | 0 |
| B2 | 0 |
| B3 | 11 |
| B4 | 3 |
| B5 | 3 |
